Results on four molecules are retold here after PMC8809517, “Cofactor-independent RNA editing by a synthetic S-type PPR protein”.

Common to all, as to test: high-throughput RNA pulldown from lysate on Ni-NTA beads; HRP: 50 mM Tris pH 8, 150 mM NaCl, 1 mM beta-mercaptoethanol, 50 ug/ml BSA, 3 ug/ml yeast RNA, 0.5% heparin; ITC and FP: Tris pH 8, 200 mM KCl, 5% glycerol; MST: 50 mM Tris pH 8, 200 mM NaCl, 1 mM DTT, BSA, heparin, 0.05% Tween 20
Conditions in all cases: tags: N-terminal His-eGFP

In data set [1] the target is T1, GFP-9S library array, motif 4 ND N98D;D124S (synthetic construct, N98D;D124S).
T1 chain: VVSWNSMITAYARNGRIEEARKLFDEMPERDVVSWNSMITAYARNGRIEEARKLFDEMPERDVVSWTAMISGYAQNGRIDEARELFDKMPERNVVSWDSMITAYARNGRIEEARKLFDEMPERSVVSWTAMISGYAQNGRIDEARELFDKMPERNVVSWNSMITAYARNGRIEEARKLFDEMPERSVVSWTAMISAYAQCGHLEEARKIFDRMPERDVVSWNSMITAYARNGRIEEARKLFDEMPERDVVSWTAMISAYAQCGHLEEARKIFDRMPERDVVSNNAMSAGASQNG

For data set [2], the target named is T2, GFP-9S library array, motif 4 ND N98T;D124M (synthetic construct, N98T;D124M).
T2 chain: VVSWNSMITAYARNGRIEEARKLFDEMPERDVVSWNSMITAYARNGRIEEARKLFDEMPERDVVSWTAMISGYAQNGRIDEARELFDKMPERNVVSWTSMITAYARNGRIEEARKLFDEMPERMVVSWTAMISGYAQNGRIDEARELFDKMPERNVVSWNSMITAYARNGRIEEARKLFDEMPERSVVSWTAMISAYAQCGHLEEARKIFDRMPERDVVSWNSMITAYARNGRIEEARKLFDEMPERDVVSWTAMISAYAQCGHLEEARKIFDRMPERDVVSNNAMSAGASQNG

Data set [3] addresses T3, GFP-9S library array, motif 4 ND N98D;D124L (synthetic construct, N98D;D124L).
T3 chain: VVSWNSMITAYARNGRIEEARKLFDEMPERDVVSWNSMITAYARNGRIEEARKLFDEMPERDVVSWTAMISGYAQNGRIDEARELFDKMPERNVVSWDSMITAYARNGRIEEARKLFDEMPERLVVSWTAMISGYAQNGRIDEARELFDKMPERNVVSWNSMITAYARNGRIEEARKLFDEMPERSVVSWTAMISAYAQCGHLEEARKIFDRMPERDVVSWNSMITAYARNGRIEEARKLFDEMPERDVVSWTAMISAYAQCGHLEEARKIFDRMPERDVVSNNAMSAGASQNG

The target of data set [4] is T4, GFP-9S library array, motif 4 ND N98D;D124H (synthetic construct, N98D;D124H).
T4 chain: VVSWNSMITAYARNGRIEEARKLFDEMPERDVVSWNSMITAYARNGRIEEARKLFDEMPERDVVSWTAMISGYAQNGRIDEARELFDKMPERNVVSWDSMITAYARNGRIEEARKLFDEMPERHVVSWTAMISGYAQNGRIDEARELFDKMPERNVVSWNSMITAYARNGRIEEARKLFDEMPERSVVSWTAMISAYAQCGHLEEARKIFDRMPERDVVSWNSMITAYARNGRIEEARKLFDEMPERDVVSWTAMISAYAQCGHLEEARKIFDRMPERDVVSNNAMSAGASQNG

Data set [5] concerns the target T5, GFP-9S library array, motif 4 ND N98T;D124Y (synthetic construct, N98T;D124Y).
T5 chain: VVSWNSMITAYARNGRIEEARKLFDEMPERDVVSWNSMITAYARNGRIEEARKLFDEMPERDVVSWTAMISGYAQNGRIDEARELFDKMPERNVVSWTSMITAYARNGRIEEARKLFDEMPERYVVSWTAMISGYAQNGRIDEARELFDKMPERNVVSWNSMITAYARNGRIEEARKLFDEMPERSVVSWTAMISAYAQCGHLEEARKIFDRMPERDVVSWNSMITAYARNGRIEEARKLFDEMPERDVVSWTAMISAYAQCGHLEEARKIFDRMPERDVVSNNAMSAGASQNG

A word on the Kd: it is a measure of binding affinity in units of concentration. Read a high Kd as weaker binding.

For the molecule AUUAUACGUGA (ssRNA) [IR-rpoA-U], the dissociation constant Kd in data set [1] (label: 5' IRDye 800CW) is 470 nM; in data set [2] (label: 5' IRDye 800CW), 165 nM; in data set [3] (label: 5' IRDye 800CW) it was 408 nM; in data set [4] (label: 5' IRDye 800CW), 182 nM; in data set [5] (label: 5' IRDye 800CW), 147 nM.
The matching figures for AUUAAACGUGA (ssRNA) [IR-rpoA-A]: 759 nM, 162 nM, 90.5 nM, 311 nM and 90.9 nM.
For AUUACACGUGA (ssRNA) [Cy5-rpoA], the Kd in data set [1] (label: 5' Cy5) came to 401 nM; in data set [2] (label: 5' Cy5) it was 101 nM; in data set [3] (label: 5' Cy5), 133 nM; in data set [4] (label: 5' Cy5) it was 123 nM; in data set [5] (label: 5' Cy5), 145 nM.
As for AUUAGACGUGA (ssRNA) [Cy5-rpoA-G], the Kd in data set [1] (label: 5' Cy5) was determined as 260 nM; in data set [2] (label: 5' Cy5), 107 nM; in data set [3] (label: 5' Cy5) it was 52.3 nM; in data set [4] (label: 5' Cy5), 120 nM; in data set [5] (label: 5' Cy5), 105 nM.
